Publication PMC5341729 (Molecular Biology of the Cell, 2017)

How the values were obtained:
[1] = target: T1, MYO10-MYO7A(TAIL)^BAIT (EGFP-MYO10^HMM fused to the tail domain of MYO7A) (UniProt Q13402 858-2215); assay: NanoSPD
T1 sequence: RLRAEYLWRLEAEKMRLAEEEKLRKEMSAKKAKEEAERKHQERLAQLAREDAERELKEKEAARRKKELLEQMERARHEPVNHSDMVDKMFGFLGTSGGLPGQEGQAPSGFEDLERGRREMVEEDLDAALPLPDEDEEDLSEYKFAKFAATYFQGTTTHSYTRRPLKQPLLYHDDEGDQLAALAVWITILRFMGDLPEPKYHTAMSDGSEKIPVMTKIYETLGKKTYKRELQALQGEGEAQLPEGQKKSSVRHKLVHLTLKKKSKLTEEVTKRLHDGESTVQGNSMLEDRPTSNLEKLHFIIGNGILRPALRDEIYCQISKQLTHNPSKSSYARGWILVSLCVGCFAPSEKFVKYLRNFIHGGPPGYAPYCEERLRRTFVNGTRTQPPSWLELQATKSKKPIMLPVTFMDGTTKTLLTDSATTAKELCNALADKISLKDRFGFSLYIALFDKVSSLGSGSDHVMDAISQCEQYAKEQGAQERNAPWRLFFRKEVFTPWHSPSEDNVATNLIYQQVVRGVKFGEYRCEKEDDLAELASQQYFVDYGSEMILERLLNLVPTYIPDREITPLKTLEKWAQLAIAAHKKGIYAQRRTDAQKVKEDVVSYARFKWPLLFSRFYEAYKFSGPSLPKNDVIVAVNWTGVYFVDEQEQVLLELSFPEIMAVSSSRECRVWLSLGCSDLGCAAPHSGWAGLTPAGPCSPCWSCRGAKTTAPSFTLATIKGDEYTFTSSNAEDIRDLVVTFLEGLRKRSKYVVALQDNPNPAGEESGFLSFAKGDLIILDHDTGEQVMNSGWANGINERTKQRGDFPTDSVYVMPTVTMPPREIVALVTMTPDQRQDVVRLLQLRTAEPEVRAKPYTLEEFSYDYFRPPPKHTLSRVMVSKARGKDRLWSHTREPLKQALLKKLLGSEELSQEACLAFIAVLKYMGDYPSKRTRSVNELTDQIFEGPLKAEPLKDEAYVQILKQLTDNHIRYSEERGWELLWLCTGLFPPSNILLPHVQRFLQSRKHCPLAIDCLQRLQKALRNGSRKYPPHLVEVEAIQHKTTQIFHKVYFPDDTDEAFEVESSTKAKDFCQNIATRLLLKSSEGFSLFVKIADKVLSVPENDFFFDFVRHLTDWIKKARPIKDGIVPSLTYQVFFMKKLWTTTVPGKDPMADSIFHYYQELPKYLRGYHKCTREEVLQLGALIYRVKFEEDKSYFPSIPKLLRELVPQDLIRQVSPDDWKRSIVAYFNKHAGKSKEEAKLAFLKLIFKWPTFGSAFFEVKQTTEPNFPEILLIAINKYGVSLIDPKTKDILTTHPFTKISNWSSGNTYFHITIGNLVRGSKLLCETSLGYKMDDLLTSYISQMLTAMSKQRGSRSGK

[2] = target: T2, MYO10-TPRN^BAIT (taperin fused to MYO10^HMM) (mouse, UniProt A2AI08 1-749); assay: NanoSPD
T2 sequence: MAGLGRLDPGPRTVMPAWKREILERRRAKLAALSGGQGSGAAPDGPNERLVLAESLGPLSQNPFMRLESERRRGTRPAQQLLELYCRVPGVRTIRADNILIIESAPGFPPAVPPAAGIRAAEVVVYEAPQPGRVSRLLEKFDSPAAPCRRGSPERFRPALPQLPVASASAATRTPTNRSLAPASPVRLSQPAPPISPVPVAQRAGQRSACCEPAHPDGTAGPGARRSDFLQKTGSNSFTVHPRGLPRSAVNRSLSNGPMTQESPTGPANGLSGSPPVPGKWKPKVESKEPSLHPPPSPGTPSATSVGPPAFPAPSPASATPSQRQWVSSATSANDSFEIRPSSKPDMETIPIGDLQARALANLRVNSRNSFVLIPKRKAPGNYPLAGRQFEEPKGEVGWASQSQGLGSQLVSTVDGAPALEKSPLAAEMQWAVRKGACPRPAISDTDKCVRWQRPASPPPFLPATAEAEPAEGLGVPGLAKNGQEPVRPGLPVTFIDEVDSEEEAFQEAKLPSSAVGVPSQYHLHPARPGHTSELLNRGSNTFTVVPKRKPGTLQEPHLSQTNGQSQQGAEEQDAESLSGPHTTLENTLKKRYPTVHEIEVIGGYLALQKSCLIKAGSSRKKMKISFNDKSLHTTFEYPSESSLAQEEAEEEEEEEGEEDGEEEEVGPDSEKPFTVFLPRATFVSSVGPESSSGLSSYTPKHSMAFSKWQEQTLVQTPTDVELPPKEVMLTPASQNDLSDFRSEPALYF

Binder | fold increase of prey fluorescence at filopodial tips against MYO10^(NO BAIT) [1] [fold] | fold increase of prey fluorescence at filopodial tips against MYO10^(NO BAIT) [2] [fold]
mCherry-MYRIP (MYO7A-Rab interacting protein), MYRIP^PREY (natural protein) MGRKLDLSGLTDDETEHVLQVVQRDFNLRKKEEERLSELKQKLDEEGSKCSILSKHQQFVEHCCMRCCSPFTFLVNTKRQCGDCKFNVCKSCCSYQKHEKAWVCCVCQQARLLRAQSLEWFYNNVKSRFKRFGSAKVLKNLYRKHRLESGACFDILGGSLFESNLENEGSISGSDSTFYRQSEGHSVMDTLAVALRVAEEAIEEAISKAEAYGDSLDKQNEASYLRDHKEELTEELATTILQKIIRKQKSKSEQQVEEEPGWPHPQSCSTKVADEGTSASPGGYRAPAALWRSQSAFSITGEEALKTPPVEAPSRQPRDQGQHPRAESALPSWKSVDRLDETNLAPVLQSPDGNWVALKDGAPPPTRLLAKPKSGTFQALEVASSVASAYDEMGSDSEEDFDWSEALSKLCPRSRALPRNPQPQPTQAQSSDQGPIAASPSSALSPNPEAMCSDSETSSAGSSREVGHQARLSWLQRKAPRNPAAEKMRLHGELDVNFNPQLASRETSDSSEPEEAPHTTDRRARRWRRARLGSEEPSKEPSSPSAQLRDLDTHQVSDDLSETDISNEARDPQTLTDTTEEKRRNRLYELAMKMSEKETSSGEDQESEPKTESENQKESLSSEDNSQSVQEELKKKFSAVSLCNISTEVLKVINATEELIAGSTGPWESPQVPPDRQKGMFPRGTDQVRLDEQLTSLEENVYLAAGTVYGLETQLTELEDAARCIHSGTDETHLADLEDQVATAAAQVHHAELQISDIESRISALTIAGLNIAPCVRFTRRRDQKQRTQVQTIDTSRQQRRKLPAPPVKAEKIETSSVTTIKTFNHNFILQGSSTNRTKERKGTTKDLMEPALESAVMY | 11.8 | 
CHD4(561-936)^PREY (domain or fragment) QVMFRNYQRKNDMDEPPSGDFGGDEEKSRKRKNKDPKFAEMEERFYRYGIKPEWMMIHRILNHSVDKKGHVHYLIKWRDLPYDQASWESEDVEIQDYDLFKQSYWNHRELMRGEEGRPGKKLKKVKLRKLERPPETPTVDPTVKYERQPEYLDATGGTLHPYQMEGLNWLRFSWAQGTDTILADEMGLGKTVQTAVFLYSLYKEGHSKGPFLVSAPLSTIINWEREFEMWAPDMYVVTYVGDKDSRAIIRENEFSFEDNAIRGGKKASRMKKEASVKFHVLLTSYELITIDMAILGSIDWACLIVDEAHRLKNNQSKFFRVLNGYSLQHKLLLTGTPLQNNLEELFHLLNFLTPERFHNLEGFLEEFADIAKEDQI |  | 7
